The values below are quoted from earlier work in article PMC10249258.

In general, Kd refers to the constant that tells how readily two partners part at equilibrium.

This data set concerns the target CD155 (Homo sapiens) (UniProt P15151).
Sequence of UniProt P15151 (P15151 21-343): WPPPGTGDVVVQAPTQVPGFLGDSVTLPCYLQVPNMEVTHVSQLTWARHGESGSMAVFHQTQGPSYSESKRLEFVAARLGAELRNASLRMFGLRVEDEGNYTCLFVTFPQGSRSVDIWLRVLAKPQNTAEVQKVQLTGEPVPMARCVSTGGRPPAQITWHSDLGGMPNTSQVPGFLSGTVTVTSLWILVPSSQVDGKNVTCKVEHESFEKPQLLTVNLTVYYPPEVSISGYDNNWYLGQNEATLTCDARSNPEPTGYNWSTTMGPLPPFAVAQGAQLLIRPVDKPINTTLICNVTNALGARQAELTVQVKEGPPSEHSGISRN

Consider TIGIT (from UniProt Q495A1), for which the Kd is 2 nM.
